Experimental data: patent US9040042B2, “Optimized antibodies that target HM1.24” (Xencor, Inc., priority 2006, dated 2015)
Where “and” joins values, the source holds several entries; their conditions need not be identical. Equal entries are not always repeated. Where two headings read alike, the source gives them in different places.

What was measured:
human F158 FcγRIIIa [1] = biological target: T1, human F158 FcγRIIIa (Homo sapiens, UniProt P08637); settings: read-out: affinity for human F158 FcγRIIIa, cited from earlier work
human V158 FcγRIIIa [2] = biological target: T2, human V158 FcγRIIIa (Homo sapiens, UniProt P08637, F176V); settings: read-out: affinity for human V158 FcγRIIIa, cited from earlier work
human V158 FcγRIIIa [3] = biological target: T2, human V158 FcγRIIIa; experiment: Binding of human WT IgG1 to human V158 FcγRIIIa (Biacore, calorimetry); settings: present study; read-out: affinity for human V158 FcγRIIIa
Experimental: (§1) This is consistent with the literature which indicate that binding is approximately 200-500 nM, as determined by Biacore (210 nM as shown in Okazaki et al, 2004, J Mol Bio 336:1239-49; 250 nM as shown in Lazar et al, Proc Natl Acad Sci USA 103(11):4005-4010) and calorimetry (530 nM, Okazaki et al, 2004, J Mol Bio 336:1239-49).

human F158 FcγRIIIa [4] = biological target: T1, human F158 FcγRIIIa; experiment: Binding of human WT IgG1 to human F158 FcγRIIIa (Biacore, calorimetry); settings: present study; binding lower than the 5 uM cutoff applied; read-out: affinity for human F158 FcγRIIIa
Experimental: as §1

CD20 = biological target: T3, CD20 (Homo sapiens, UniProt P11836); settings: cited from earlier work
T3 construct: endogenous in cells; host or cells: patients' own cells (clinical treatment, reported from the literature)
T3 sequence (P11836 1-297): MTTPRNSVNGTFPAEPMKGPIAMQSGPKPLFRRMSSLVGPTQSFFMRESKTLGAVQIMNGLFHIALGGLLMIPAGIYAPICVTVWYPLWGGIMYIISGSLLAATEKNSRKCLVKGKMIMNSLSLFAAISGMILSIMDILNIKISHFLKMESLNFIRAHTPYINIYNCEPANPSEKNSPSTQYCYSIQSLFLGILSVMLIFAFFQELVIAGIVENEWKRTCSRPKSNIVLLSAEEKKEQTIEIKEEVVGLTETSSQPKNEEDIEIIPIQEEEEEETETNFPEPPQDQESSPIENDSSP

[5] = calorimetry, Okazaki et al 2004

T2 sequence (P08637 17-208 F176V limits assumed): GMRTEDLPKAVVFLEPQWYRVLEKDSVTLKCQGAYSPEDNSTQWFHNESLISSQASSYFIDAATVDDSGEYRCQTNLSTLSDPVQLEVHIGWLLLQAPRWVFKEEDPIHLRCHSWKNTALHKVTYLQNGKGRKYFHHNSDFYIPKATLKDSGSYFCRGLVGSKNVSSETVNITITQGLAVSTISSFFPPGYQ
T1 sequence (P08637 17-208 limits assumed): as the sequence (P08637 17-208 F176V limits assumed) above, with V160F counted along it

In the case of “human WT IgG1: Human wild type IgG1 immunoglobulin, reference for Fc receptor binding”, the Kd (human F158 FcγRIIIa [1]; Biacore, Ferrara et al 2006) is given as 5000 nM, the Kd (human F158 FcγRIIIa [1]; [5]) is given as 2700 nM and the Kd (human F158 FcγRIIIa [1]; literature overall) is given as 3000 to 5000 nM. For the same substance, the Kd (human V158 FcγRIIIa [2]; Biacore, Okazaki et al 2004, Lazar et al) was 210 nM and 250 nM, the Kd (human V158 FcγRIIIa [2]; [5]) was 530 nM and the Kd (human V158 FcγRIIIa [2]; literature overall) was 200 to 500 nM. For the same substance, the Kd (human V158 FcγRIIIa [2]; one study, Ferrara et al 2006) was 750 nM, the Kd (human V158 FcγRIIIa [3]) was ~240 nM and the Kd (human F158 FcγRIIIa [4]) was > 5000 nM.

In the case of “Rituxan: anti-CD20 antibody Rituxan® (rituximab)”, the clinical efficacy (CD20; patients homozygous or heterozygous for FcγRIIIA 158F, Carton 2002, Weng 2003) is given as “minimally effective” and the clinical response (CD20; patients with FcγRIIIA 158 V/V homozygous genotype, Dall'Ozzo et al. 2004) is given as “better clinical response”.
